# Tests used:
# PDK150-360 = target: T1, PDK150-360 (Homo sapiens, UniProt O15530); assay: Surface plasmon resonance, PDK1 binding to S6K tail peptides
# T1 construct: the catalytic domain of PDK1 comprising residues 50-360
# T1 sequence (O15530 50-360): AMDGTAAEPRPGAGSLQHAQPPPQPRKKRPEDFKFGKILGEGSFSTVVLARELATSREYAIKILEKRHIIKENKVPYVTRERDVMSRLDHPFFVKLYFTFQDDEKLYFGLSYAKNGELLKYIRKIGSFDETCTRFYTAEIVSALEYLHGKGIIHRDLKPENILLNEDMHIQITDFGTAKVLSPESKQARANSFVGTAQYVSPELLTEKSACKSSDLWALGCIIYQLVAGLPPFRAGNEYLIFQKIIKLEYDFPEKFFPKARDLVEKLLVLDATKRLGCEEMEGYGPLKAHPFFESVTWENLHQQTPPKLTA
# Experimental: (§1) FIG. 21 (A) Aliquots of S6K1 protein from bar 1, 2, 5 and 6 in FIG. 5B were subjected to immunoblotting with phosphorylation site specific Ab against the activation loop or anti-HA Ab. (B) The kinase activity of PKB<143-479, prephosphorylated by PDK1 in the activation loop, was determined in the presence of increasing concentrations of synthetic PRK2 tail peptides encompassing the HM, which were either nonphosphorylated (PIFtide) or phosphorylated at the tail site (pT958-PIFtide). […] (C) The kinase activity of purified PDK1 was determined in the presence of increasing concentrations of synthetic S6K tail peptide (residues 366-395) that was either phosphorylated at T389 (S371/pT389) or phosphorylated at both 5389 and 5371 (pS371/pT389). Kinase activity is expressed as percent, and data are means+/−SD of 3 independent experiments. (D) Synthetic S371/pT389 S6K tail peptide and pS371/pT389 S6K tail peptide were biotinylated and used to coat streptavidin Sensor Chips. PDK150-360 was injected at different concentrations (0.05-5.4 mM) onto the peptide coated chips. In the inserts, the kinetic constants were obtained by fitting the data to a hyperbola using kaleidagraph software. Representative results from one of several experiments are shown.
# BiaCore analysis was performed as described in Biondi et al. (2000). […]
# PDK1 = target: T2, PDK1 (Homo sapiens, UniProt O15530); assay: PDK1 kinase activity with S6K tail peptides; assay type: biochemical
# T2 sequence (O15530 1-556): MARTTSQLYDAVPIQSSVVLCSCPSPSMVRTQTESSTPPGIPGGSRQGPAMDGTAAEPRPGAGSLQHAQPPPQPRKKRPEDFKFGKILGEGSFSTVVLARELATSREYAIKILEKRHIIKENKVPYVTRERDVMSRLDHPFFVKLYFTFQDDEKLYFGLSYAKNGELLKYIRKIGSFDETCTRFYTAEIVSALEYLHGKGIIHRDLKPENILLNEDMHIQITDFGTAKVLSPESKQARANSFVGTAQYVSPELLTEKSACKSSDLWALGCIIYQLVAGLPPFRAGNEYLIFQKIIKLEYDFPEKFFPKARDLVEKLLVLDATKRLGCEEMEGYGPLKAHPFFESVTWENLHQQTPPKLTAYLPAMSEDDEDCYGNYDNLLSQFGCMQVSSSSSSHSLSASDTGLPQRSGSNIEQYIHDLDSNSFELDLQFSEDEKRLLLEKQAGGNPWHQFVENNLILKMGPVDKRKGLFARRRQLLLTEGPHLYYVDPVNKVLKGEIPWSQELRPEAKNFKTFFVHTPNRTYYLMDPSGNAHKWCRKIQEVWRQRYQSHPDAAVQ
# Experimental: as §1
# [1] = target: T3, PDK1 phosphorylation of GST-S6K1-T2[Thr412Glu] (Homo sapiens, UniProt O15530); assay: PDK1 phosphorylation of substrate S6K1 in vitro; assay type: biochemical; conditions: compound 100 and 200 μM
# T3 construct: GST (N); made in house; host or cells: HEK293
# Experimental: FIG. 4—Small compounds designed to bind the HM/PIF-pocket of PDK1 can block the PDK1-dependent phosphorylation and activation of substrates that require docking to the HM/PIF-pocket of PDK1. (A) Effect of compound 1 (100 and 200 μM) on PDK1 phosphorylation of its substrate S6K1. The phosphorylation reaction was performed in vitro with [γ^32P]ATP and then separated on SDS-PAGE followed by exposure to phosphorimager. The radioactive band corresponding to phosphorylated GST-56K1-T2[Thr412Glu] (S6K[412E]) is indicated. (B) PDK1 or PDK1[Val127Leu] (PDK1[V127L]) were pre-incubated with GST-[…]N-SGK1 [Ser422Asp] […] (C) The activity of S6K was measured in vitro after glutathione sepharose purification; aliquots of purified proteins were separated on SDS-PAGE and the level of activation loop phosphorylation was visualized by immunoblotting using phospho-specific antibodies that recognize the phosphorylated activation loop, followed by stripping of the membranes and re-probing with anti-GST to verify the presence of equal amounts of protein. (D) Cells overexpressing GST-56K1-T2[Thr412Glu] were treated as in (C) but S6K activity was measured in vitro after immunoprecipitation of the GST-fusion protein with anti-GST antibodies; the level of S6K expression was analysed by western-blotting of crude extracts. […]
binding of PDK1 to tail peptide (in words) (PDK150-360),activation of PDK1 by tail peptide (in words) (PDK1),PDK1-catalyzed phosphorylation of S6K1 (in words) [1],Molecule
bound equally well,activated to the same extent,,S371/pT389: synthetic S6K1 tail peptide (residues 366-395) phosphorylated in the HM
,,decreased,O=C(O)CSC(CC(=O)c1ccc(Cl)cc1)c1ccccc1 (stereo not drawn) [Compound 1]
